B1: His-tagged Drosophila melanogaster Hairless residues 192-389, wild type (domain or fragment)
chain: AVVAAAAGTAKIGKGSNSGGSFDMGRTPISTHGNNSWGGYGGRLQFFKDGKFILELARSKDGDKSGWVSVTRKTFRPPSAATSATVTPTSAVTTAYPKNENSTSLSFSDDNSSIQSSPWQRDQPWKQSRPRRGISKELSLFFHRPRNSTLGRAALRTAARKRRRPHEPLTTSEDQQPIFATAIKAENGDDTLKAEAAE
notes: 198 residues, fits 192-389 and L235, F237, L245, L247, W258; the printed DNA starts with linker codons R-W-I-R before the insert; also called HIS-H192-389 WT; Dmel Hairless192-389 WT; source: E. coli (codon-optimized for expression in E. coli, pRSET-C), isolated
B2: His-tagged Parasteatoda tepidariorum S-CAP residues 233-432, wild type (domain or fragment)
chain: TVNTEDPPKDSINFLDHSRVTDPCSAASETSLPQDVPATSTVGSLKFFLGGRLVLKLNAQQDGGSGNKCQWVQSNDLPKHSNHNKKDKHKKKFAPYSYSSSGTQKPLKKGDDTSAVPDCDPSGIKKPRLKEYETSENSALGLLLCSSSWTPPVADGQESIDVDDTSSKTSEGYISPILSNNSRTSKIDTIKHDFASNPNT
notes: 200 residues, fits 233-432; Su(H)-Co-repressor Adaptor Protein (S-CAP), house spider Parasteatoda tepidariorum, residues 233-432 with the SBD-like motif; same vector and leader as m9; also called HIS-PtepSCAP233-432 WT; Ptep s-CAP233-432 WT; source: E. coli (codon-optimized for expression in E. coli, pRSET-C), isolated

Target: T1, GST-tagged Drosophila Su(H) (Drosophila melanogaster, UniProt P28159 1-594)
T1 construct: Suppressor of Hairless [Su(H)], Drosophila melanogaster; construct GST-Su(H) pGEX-KG of Bailey and Posakony, 1995; also called GST-Su(H); Suppressor of Hairless; source: E. coli, isolated, on Sepharose beads
T1 sequence (P28159 whole entry): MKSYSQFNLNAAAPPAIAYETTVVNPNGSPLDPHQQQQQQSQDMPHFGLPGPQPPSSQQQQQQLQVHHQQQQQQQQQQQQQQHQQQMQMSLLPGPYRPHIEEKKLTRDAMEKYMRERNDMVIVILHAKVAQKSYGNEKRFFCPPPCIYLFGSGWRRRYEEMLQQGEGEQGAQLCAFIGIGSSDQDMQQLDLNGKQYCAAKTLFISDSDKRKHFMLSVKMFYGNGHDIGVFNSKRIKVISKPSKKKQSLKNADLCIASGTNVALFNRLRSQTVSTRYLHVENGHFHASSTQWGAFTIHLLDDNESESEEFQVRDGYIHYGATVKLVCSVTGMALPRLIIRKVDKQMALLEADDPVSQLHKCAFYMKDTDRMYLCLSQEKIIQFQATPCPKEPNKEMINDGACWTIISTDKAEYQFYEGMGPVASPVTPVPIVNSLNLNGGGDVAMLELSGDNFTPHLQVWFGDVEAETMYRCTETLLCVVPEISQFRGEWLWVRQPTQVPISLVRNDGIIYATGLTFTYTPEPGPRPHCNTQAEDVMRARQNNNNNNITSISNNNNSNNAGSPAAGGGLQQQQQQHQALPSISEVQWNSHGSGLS
Test: pull-down; in vitro; Sepharose beads bearing GST-Su(H) or only GST, His-tagged Hairless or S-CAP segments in solution; Ptep S-CAP also at 10X input
Settings: both partners purified

Row | Binder | binding result
1 | B1 | binds
2 | B2 | binds

— publication PMC6777938, “Evolutionary emergence of Hairless as a novel component of the Notch signaling pathway” (eLife, 2019)
